Test results from patent US20220177579A1 (published 2022).

T1: human CD19 on CD19(+) NALM6 acute lymphoid leukemia cells (UniProt P15391 20-556)
T1 chain: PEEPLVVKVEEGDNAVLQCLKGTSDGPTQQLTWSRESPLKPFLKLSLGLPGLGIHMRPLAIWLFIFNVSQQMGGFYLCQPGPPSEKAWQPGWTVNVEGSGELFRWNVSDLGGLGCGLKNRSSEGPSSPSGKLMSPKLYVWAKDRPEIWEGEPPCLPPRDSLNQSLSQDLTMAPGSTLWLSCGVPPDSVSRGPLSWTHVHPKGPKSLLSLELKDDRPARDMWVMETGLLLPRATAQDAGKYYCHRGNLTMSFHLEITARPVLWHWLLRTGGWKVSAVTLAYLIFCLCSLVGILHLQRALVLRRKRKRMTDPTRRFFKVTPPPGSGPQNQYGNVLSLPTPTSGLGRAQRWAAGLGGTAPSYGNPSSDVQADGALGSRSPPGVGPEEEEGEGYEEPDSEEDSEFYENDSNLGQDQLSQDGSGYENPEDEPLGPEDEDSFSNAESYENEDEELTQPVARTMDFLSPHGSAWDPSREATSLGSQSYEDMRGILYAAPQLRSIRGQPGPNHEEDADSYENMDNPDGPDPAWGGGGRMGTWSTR


Target: T1, human CD19 on CD19(+) NALM6 acute …
Assay: FACS

Row | EC50 [µg/mL] | Binder
1 | 0.1 | CD19-BsAb BC250 (hFMC63 VL-2/VH-1b x CD3 IgG-scFv bispecific antibody) (bispecific antibody) heavy: not shown light: DIQMTQSPSSLSASVGDRVTITCQASQDISKYLNWYQQKPGKAVKLLIYHTSRLHSGVPSRFSGSGSGTDYTLTISSLQPEDIATYFCQQGNTLPYTFGGGTKLEITRTVAAPSVFIFPPSDEQLKSGTASVVCLLNNFYPREAKVQWKVDNALQSGNSQESVTEQDSKDSTYSLSSTLTLSKADYEKHKVYACEVTHQGLSSPVTKSFNRGECTSGGGGSGGGGSGGGGSQVQLVQSGGGVVQPGRSLRLSCKASGYTFTRYTMHWVRQAPGKCLEWIGYINPSRGYTNYNQKFKDRFTISRDNSKNTAFLQMDSLRPEDTGVYFCARYYDDHYSLDYWGQGTPVTVSSGGGGSGGGGSGGGGSGGGGSGGGGSGGGGSDIQMTQSPSSLSASVGDRVTITCSASSSVSYMNWYQQTPGKAPKRWIYDTSKLASGVPSRFSGSGSGTDYTFTISSLQPEDIATYYCQQWSSNPFTFGCGTKLQITR
2 | 0.1 | L2+H8b (antibody, V domains shown) VH: QVQLQESGPGLVKPSETLSVTCTVSGVSLPDYGVSWIRQPPGKGLEWIGVIWGSETTYYNPSLKSRLTISKDTSKNQFSLKLSSVTAADTAVYYCAKHYYYGGSYAMDYWGQGTSVTVSS VL: DIQMTQSPSSLSASVGDRVTITCQASQDISKYLNWYQQKPGKAVKLLIYHTSRLHSGVPSRFSGSGSGTDYTLTISSLQPEDIATYFCQQGNTLPYTFGGGTKLEIT
3 | 0.07 | L1+H7b (antibody, V domains shown) VH: QVQLQESGPGLVKPSETLSLTCTVSGVSLPDYGVSWIRQPPGKGLEWIGVIWGSETTYYNPSLKSRVTISKDTSKSQFSLKMSSVTAADTAVYYCAKHYYYGGSYAMDYWGQGTSVTVSS VL: DIQMTQSPSSLSASVGDRVTITCRASQDISKYLNWYQQKPGKAVKLLIYHTSRLHTGVPSRFSGSGSGTDYTLTISSLQPEDIATYFCQQGNTLPYTFGGGTKLEIT
4 | 0.08 | L1+H6b (antibody, V domains shown) VH: QVQLQESGPGLVKPSETLSLTCTVSGVSLPDYGVSWIRQPPGKGLEWLGVIWGSETTYYNPSLKSRVTISVDNSKNQFSLKLSSVTAADTAVYYCAKHYYYGGSYAMDYWGQGTSVTVSS VL: DIQMTQSPSSLSASVGDRVTITCRASQDISKYLNWYQQKPGKAVKLLIYHTSRLHTGVPSRFSGSGSGTDYTLTISSLQPEDIATYFCQQGNTLPYTFGGGTKLEIT
5 | 0.27 | L2+H4 (antibody, V domains shown) VH: QVQLQESGPGLVKPSETLSLTCTVSGVSLPDYGVSWIRQPPGKGLEWIGVIWGSETTNYNPSLKSRVTISVDNSKNQFSLKLSSLTAADTAVYYCAKHYYYGGSYAMDYWGQGTSVTVSS VL: DIQMTQSPSSLSASVGDRVTITCQASQDISKYLNWYQQKPGKAVKLLIYHTSRLHSGVPSRFSGSGSGTDYTLTISSLQPEDIATYFCQQGNTLPYTFGGGTKLEIT
6 | 0.19 | L3+H1b (antibody, V domains shown) VH: QVQLQESGPGLVKPSETLSVTCTVSGVSLPDYGVSWIRQPPGKGLEWIGVIWGSETTYYNPSLKSRVTISVDTSKNQVSLKLSSVTAADTAVYYCAKHYYYGGSYAMDYWGQGTSVTVSS VL: DIQMTQSTSSLSASVGDRVTITCRASQDISKYLNWYQQKPGKAVKLLIYHTSRLHSGVPSRFSGSGSGTDYTFTISSLQPEDIATYYCQQGNTLPYTFGGGTKLEIT
7 | 0.06 | L2+H7b (antibody, V domains shown) VH: QVQLQESGPGLVKPSETLSLTCTVSGVSLPDYGVSWIRQPPGKGLEWIGVIWGSETTYYNPSLKSRVTISKDTSKSQFSLKMSSVTAADTAVYYCAKHYYYGGSYAMDYWGQGTSVTVSS VL: DIQMTQSPSSLSASVGDRVTITCQASQDISKYLNWYQQKPGKAVKLLIYHTSRLHSGVPSRFSGSGSGTDYTLTISSLQPEDIATYFCQQGNTLPYTFGGGTKLEIT
8 | 0.28 | L3+H2b (antibody, V domains shown) VH: QVQLQESGPGLVKPSETLSLTCTVSGVSLPDYGVSWIRQPPGKGLEWLGVIWGSETTNYNPSLKSRVTISKDTSKNQFSLKLSSLTAADTAVYYCAKHYYYGGSYAMDYWGQGTSVTVSS VL: DIQMTQSTSSLSASVGDRVTITCRASQDISKYLNWYQQKPGKAVKLLIYHTSRLHSGVPSRFSGSGSGTDYTFTISSLQPEDIATYYCQQGNTLPYTFGGGTKLEIT
9 | 0.19 | L2+H5b (antibody, V domains shown) VH: QVQLQESGPGLVKPSETLSLTCTVSGVSLPDYGVSWIRQPPGKGLEWIGVIWGSETTNYNPSLKSRVTISKDTSKSQVSLKLSSVTAADTAVYYCAKHYYYGGSYAMDYWGQGTSVTVSS VL: DIQMTQSPSSLSASVGDRVTITCQASQDISKYLNWYQQKPGKAVKLLIYHTSRLHSGVPSRFSGSGSGTDYTLTISSLQPEDIATYFCQQGNTLPYTFGGGTKLEIT
10 | 0.17 | L2+H2b (antibody, V domains shown) VH: QVQLQESGPGLVKPSETLSLTCTVSGVSLPDYGVSWIRQPPGKGLEWLGVIWGSETTNYNPSLKSRVTISKDTSKNQFSLKLSSLTAADTAVYYCAKHYYYGGSYAMDYWGQGTSVTVSS VL: DIQMTQSPSSLSASVGDRVTITCQASQDISKYLNWYQQKPGKAVKLLIYHTSRLHSGVPSRFSGSGSGTDYTLTISSLQPEDIATYFCQQGNTLPYTFGGGTKLEIT
11 | 0.42 | L3+H4 (antibody, V domains shown) VH: QVQLQESGPGLVKPSETLSLTCTVSGVSLPDYGVSWIRQPPGKGLEWIGVIWGSETTNYNPSLKSRVTISVDNSKNQFSLKLSSLTAADTAVYYCAKHYYYGGSYAMDYWGQGTSVTVSS VL: DIQMTQSTSSLSASVGDRVTITCRASQDISKYLNWYQQKPGKAVKLLIYHTSRLHSGVPSRFSGSGSGTDYTFTISSLQPEDIATYYCQQGNTLPYTFGGGTKLEIT
12 | 0.23 | L1+H2b (antibody, V domains shown) VH: QVQLQESGPGLVKPSETLSLTCTVSGVSLPDYGVSWIRQPPGKGLEWLGVIWGSETTNYNPSLKSRVTISKDTSKNQFSLKLSSLTAADTAVYYCAKHYYYGGSYAMDYWGQGTSVTVSS VL: DIQMTQSPSSLSASVGDRVTITCRASQDISKYLNWYQQKPGKAVKLLIYHTSRLHTGVPSRFSGSGSGTDYTLTISSLQPEDIATYFCQQGNTLPYTFGGGTKLEIT
13 | 0.37 | L1+H3 (antibody, V domains shown) VH: QVQLQESGPGLVKPSETLSLTCTVSGVSLPDYGVSWIRQPPGKGLEWIGVIWGSETTNYNPSLKSRLTISVDTSKNQFSLKMSSVTAADTAVYYCAKHYYYGGSYAMDYWGQGTSVTVSS VL: DIQMTQSPSSLSASVGDRVTITCRASQDISKYLNWYQQKPGKAVKLLIYHTSRLHTGVPSRFSGSGSGTDYTLTISSLQPEDIATYFCQQGNTLPYTFGGGTKLEIT
14 | 0.13 | L1+H1b (antibody, V domains shown) VH: QVQLQESGPGLVKPSETLSVTCTVSGVSLPDYGVSWIRQPPGKGLEWIGVIWGSETTYYNPSLKSRVTISVDTSKNQVSLKLSSVTAADTAVYYCAKHYYYGGSYAMDYWGQGTSVTVSS VL: DIQMTQSPSSLSASVGDRVTITCRASQDISKYLNWYQQKPGKAVKLLIYHTSRLHTGVPSRFSGSGSGTDYTLTISSLQPEDIATYFCQQGNTLPYTFGGGTKLEIT
15 | 0.08 | L3+H7b (antibody, V domains shown) VH: QVQLQESGPGLVKPSETLSLTCTVSGVSLPDYGVSWIRQPPGKGLEWIGVIWGSETTYYNPSLKSRVTISKDTSKSQFSLKMSSVTAADTAVYYCAKHYYYGGSYAMDYWGQGTSVTVSS VL: DIQMTQSTSSLSASVGDRVTITCRASQDISKYLNWYQQKPGKAVKLLIYHTSRLHSGVPSRFSGSGSGTDYTFTISSLQPEDIATYYCQQGNTLPYTFGGGTKLEIT
16 | 0.13 | L1+H8b (antibody, V domains shown) VH: QVQLQESGPGLVKPSETLSVTCTVSGVSLPDYGVSWIRQPPGKGLEWIGVIWGSETTYYNPSLKSRLTISKDTSKNQFSLKLSSVTAADTAVYYCAKHYYYGGSYAMDYWGQGTSVTVSS VL: DIQMTQSPSSLSASVGDRVTITCRASQDISKYLNWYQQKPGKAVKLLIYHTSRLHTGVPSRFSGSGSGTDYTLTISSLQPEDIATYFCQQGNTLPYTFGGGTKLEIT
17 | 0.25 | L1+H4 (antibody, V domains shown) VH: QVQLQESGPGLVKPSETLSLTCTVSGVSLPDYGVSWIRQPPGKGLEWIGVIWGSETTNYNPSLKSRVTISVDNSKNQFSLKLSSLTAADTAVYYCAKHYYYGGSYAMDYWGQGTSVTVSS VL: DIQMTQSPSSLSASVGDRVTITCRASQDISKYLNWYQQKPGKAVKLLIYHTSRLHTGVPSRFSGSGSGTDYTLTISSLQPEDIATYFCQQGNTLPYTFGGGTKLEIT
18 | 0.18 | L1+H5b (antibody, V domains shown) VH: QVQLQESGPGLVKPSETLSLTCTVSGVSLPDYGVSWIRQPPGKGLEWIGVIWGSETTNYNPSLKSRVTISKDTSKSQVSLKLSSVTAADTAVYYCAKHYYYGGSYAMDYWGQGTSVTVSS VL: DIQMTQSPSSLSASVGDRVTITCRASQDISKYLNWYQQKPGKAVKLLIYHTSRLHTGVPSRFSGSGSGTDYTLTISSLQPEDIATYFCQQGNTLPYTFGGGTKLEIT
19 | 0.08 | L2+H6b (antibody, V domains shown) VH: QVQLQESGPGLVKPSETLSLTCTVSGVSLPDYGVSWIRQPPGKGLEWLGVIWGSETTYYNPSLKSRVTISVDNSKNQFSLKLSSVTAADTAVYYCAKHYYYGGSYAMDYWGQGTSVTVSS VL: DIQMTQSPSSLSASVGDRVTITCQASQDISKYLNWYQQKPGKAVKLLIYHTSRLHSGVPSRFSGSGSGTDYTLTISSLQPEDIATYFCQQGNTLPYTFGGGTKLEIT
